As usually defined, the Kd is the free concentration of one partner at which half of the binding sites on the other are occupied at equilibrium, for simple one-to-one binding. A higher Kd goes with weaker binding.

The target of series [1] is PPR10 ND variant motifs 6 and 7 (position 6, 1') changed to N6,D1' (Zea mays) (UniProt B8Y6I0). The series can be described thus: EMSA. To be noted: RNA 15 pM. (In general: Mobility shift assays separate free from complexed probe on a gel.)
Series [2] addresses PPR10 NS variant motifs 6 and 7 (position 6, 1') changed to N6,S1' (Zea mays) (UniProt B8Y6I0). Description: EMSA. The settings on record: RNA 15 pM.

Take atpH UU-substituted RNA: the figures for the dissociation constant (Kd) in series [1] and in series [2] were 3 nM and 20 nM, respectively.

Turning to atpH CC-substituted RNA, the equilibrium dissociation constant (Kd) in series [1] came out at 17 nM; in series [2], 9 nM.

Values taken from US20150218227.
